Experimental findings from doi:10.1101/2025.07.22.666160, “Alphaherpesvirus pUL21 homologues use non-canonical motifs to compete with cellular adaptors for protein phosphatase 1 binding” (bioRxiv, 2025) are described below.

As usually defined, the Kd is the concentration at which binding is half-saturated. Read a low Kd as tighter binding. In general, IC50 refers to the concentration at which inhibition is half-maximal. Broadly, the stoichiometry N is the number of molecules, sites or subunits per partner or assembly.

Primed or numbered codes have the meaning given here. Where no end group is shown, it is not given here. FITC′ = fluorescein isothiocyanate; Ahx = NCCCCCC(=O)O

What all share (details): both partners purified
Assay [1] deals with T1, mouse PP1γ catalytic domain (residues 7–300)-H6 (mouse, UniProt P63087 7-300).
T1 construct: Protein phosphatase 1 gamma catalytic domain, mouse, residues 7-300; also called PP1 catalytic domain; source: E. coli T7 Express lysY/Iq, purified (Ni-NTA, SEC)
T1 sequence (P63087 7-300): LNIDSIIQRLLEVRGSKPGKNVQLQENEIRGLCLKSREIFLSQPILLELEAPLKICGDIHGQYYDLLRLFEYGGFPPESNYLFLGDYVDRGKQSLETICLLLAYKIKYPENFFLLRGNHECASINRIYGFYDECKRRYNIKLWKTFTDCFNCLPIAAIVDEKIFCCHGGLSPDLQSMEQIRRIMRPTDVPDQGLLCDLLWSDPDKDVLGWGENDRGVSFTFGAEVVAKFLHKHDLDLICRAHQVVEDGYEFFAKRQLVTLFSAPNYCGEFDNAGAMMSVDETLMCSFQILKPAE
As to the kind of experiment: fluorescence polarisation; fluorescence anisotropy; serial dilution of PP1γ catalytic domain with 2 nM FITC-GADD34 peptide; Tris pH 8.5 in place of HEPES pH 8. (In general: In fluorescence polarisation assays a small probe gives low polarisation when free and higher when bound to something large.)

Assay [2] addresses T1, mouse PP1γ catalytic domain (residues …). The experiment in a line: fluorescence polarisation; fluorescence anisotropy; serial dilution of PP1γ catalytic domain with 2 nM FITC-GADD34 peptide; 27°C; 50 mM HEPES pH 8.0, 500 mM NaCl, 0.05% TWEEN-20; one-site model.
For assay [3] the target is unchanged. As to the kind of experiment: fluorescence polarisation; competition fluorescence anisotropy; pUL21 titrated into a pre-formed complex of 2 nM FITC-GADD34 peptide and 250 nM PP1γ; Tris pH 8.5 in place of HEPES pH 8.
Assay [4] shares this target. As to the kind of experiment: ITC; 25°C; 50 mM HEPES pH 8.0, 500 mM NaCl, 0.5 mM TCEP; 12 x 3 µL injections; one-site binding model; syringe and cell contents in Table S1.
Assay [5] has the same target. As to the kind of experiment: fluorescence polarisation; competition fluorescence anisotropy; competitor titrated into a pre-formed complex of 2 nM FITC-GADD34 peptide and 250 nM PP1γ (final); 27°C; 50 mM HEPES pH 8.0, 500 mM NaCl, 0.05% TWEEN-20.

B1: GADD34 RVxF+ϕϕ[xF] peptide (residues 552–568), FITC-labelled (peptide)
peptide: {FITC′-Ahx}-KARKVRFSEKVTVHFLA
notes: GADD34 (PP1 regulatory subunit 15A, PPP1R15A), residues 552-568 with the RVxF and ϕϕ[xF] motifs; also called GADD34 peptide; fluorescent GADD34 peptide; source: synthetic peptide (GenScript, >95% purity)
As for B1, the dissociation constant (Kd) came to 55 nM in assay [1] and 144 nM in assay [2].

B2: pUL21-RVxF-H6 (A237V+V239F) (natural protein)
chain: MELSYATTMHYRDVVFYVTTDRNRAYFVCGGCVYSVGRPCASQPGEIAKFGLVVRGTGPDDRVVANYVRSELRQRGLQDVRPIGEDEVFLDSVCLLNPNVSSELDVINTNDVEVLDECLAEYCTSLRTSPGVLISGLRVRAQDRIIELFEHPTIVNVSSHFVYTPSPYVFALAQAHLPRLPSSLEALVSGLFDGIPAPRQPLDAHNPRTDVVITGRRAPRPIAGSGAGSGGAGAKRVTFSEFVQVKHIDRVGPAGVSPAPPPNNTDSSSLVPGAQDSAPPGPTLRELWWVFYAADRALEEPRADSGLTREEVRAVRGFREQAWKLFGSAGAPRAFIGAALGLSPLQKLAVYYYIIHRERRLSPFPALVRLVGRYTQRHGLYVPRPDDPVLADAINGLFRDALAAGTTAEQLLMFDLLPPKDVPVGSDVQADSTALLRFIESQRLAVPGGVISPEHVAYLGAFLSVLYAGRGRMSAATHTARLTGVTSLVLAVGDVDRLSAFDRGAAGAASRTRAAGYLDVLLTVRLARSQHGQSV
notes: HSV-1 pUL21 with A237V and V239F, made from pUL21-H6 (the full-length protein) by site-directed mutagenesis; methods, results and legend say V239F; also called RVxF pUL21; A237V+V239F (RVxF) mutant; source: E. coli T7 Express lysY/Iq, purified (Ni-NTA, SEC); not shown: His6, C-terminal, kept
Turning to B2, in assay [3], the IC50 turned out to be 337 nM.

B3: pORF38-NLT-H6 (residues 1–263) (domain or fragment)
chain: MEFPYHSTVSYNGVTFYFNERATRAYFICGGCLISIPRKHGGEIAKFGHVVRGVGPGDRSVASYVRSELNRTGKTWAVSSNNNCVFLDRVALLAAGSGAVDRDLCGTFDVEVEDPTLADYLVSLPVTHLTLVAGVDVTRENKLKLFPTPTAINTTNGFMYVPNEASFSLVYMRMLELPESLQELVSGLFDGTPEIRDALNGSNDDEKTSIIVSRRAADVVTEDVKADDVPISGEPYSEKQPRRRKKSDHITLSNFVQIRTIPR
notes: VZV pORF38 residues 1-263: N-terminal domain plus linker region to the end of the TROPPO motif (NLT region); Sub-cloned into the vector pOPTnH; also called pOPF38-NLT; source: E. coli T7 Express lysY/Iq, purified (Ni-NTA, SEC); not shown: His6, C-terminal, kept
In the case of B3, in assay [4], binding was characterised by a dissociation constant (Kd) of 497 nM and the “stoichiometry N” value was 1. The molecule also had an IC50 in assay [5] of 417 nM.
